In US20260209331A1 (published 2026):

T1: P19 subunit of human IL-23 (IL23p19) (UniProt Q9NPF7 20-189)
T1 chain: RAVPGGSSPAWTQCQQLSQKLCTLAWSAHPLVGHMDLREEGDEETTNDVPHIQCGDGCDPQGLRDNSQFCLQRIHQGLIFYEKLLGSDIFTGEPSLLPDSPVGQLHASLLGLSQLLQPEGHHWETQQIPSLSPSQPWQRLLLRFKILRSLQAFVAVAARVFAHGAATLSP

B1: BsAb #A6 (antibody)
chain 1: EIVLTQSPATLSLSPGERATLSCRASQSVYSYLAWYQQKPGQAPRLLIYDASNRATGIPARFSGSGSGTDFTLTISSLEPEDFAVYYCQQRSNWPPFTFGPGTKVDIKASTKGPSVFPLAPSSKSTSGGTAALGCLVKDYFPEPVTVSWNSGALTSGVHTFPAVLQSSGLYSLSSVVTVPSSSLGTQTYICNVNHKPSNTKVDKKV
chain 2: not shown
chain 3: not shown
chain 4: not shown
B2: BsAb #C8 (antibody)
chain 1: not shown
chain 2: EIVLTQSPATLSLSPGERATLSCRASQSVYSYLAWYQQKPGQAPRLLIYDASNRATGIPARFSGSGSGTDFTLTISSLEPEDFAVYYCQQRSNWPPFTFGPGTKVDIKGGGGSGGGGSGGGGSDIQMTQSPSSLSASVGDRVTITCRTSENIYSYLAWYQQKPGKAPKLLIYNAKTLAEGVPSRFSGSGSGTDFTLTISSLQPEDFATYYCQHHYGIPFTFGQGTKVEIKRTVAAPSVFIFPPSDEQLKSGTASVVCLLNNFYPREAKVQWKVDNALQSGNSQESVTEQDSKDSTYSLSSTLTLSKADYEKHKVYACEVTHQGLSSPVTKSFNRGEC
B3: BsAb #D3 (antibody)
chain 1: not shown
chain 2: DIQMTQSPSSLSASVGDRVTITCRTSENIYSYLAWYQQKPGKAPKLLIYNAKTLAEGVPSRFSGSGSGTDFTLTISSLQPEDFATYYCQHHYGIPFTFGQGTKVEIKRTVAAPSVFIFPPSDEQLKSGTASVVCLLNNFYPREAKVQWKVDNALQSGNSQESVTEQDSKDSTYSLSSTLTLSKADYEKHKVYACEVTHQGLSSPVTKSFNRGEC
B4: BsAb #A7 (antibody)
chain 1: not shown
chain 2: B3 chain 2
chain 3: not shown
chain 4: not shown
B5: BsAb #D4 (antibody)
chain 1: not shown
chain 2: B3 chain 2
B6: BsAb #A8 (antibody)
chain 1: B1 chain 1
chain 2: B3 chain 2
chain 3: not shown
chain 4: not shown
B7: BsAb #B8 (antibody)
chain 1: not shown
chain 2: B3 chain 2
B8: BsAb #B7 (antibody)
chain 1: not shown
chain 2: B3 chain 2

Molecular target: T1, P19 subunit of human IL-23 (IL23p19)
Test: SPR

| Kd [nM] | Binder |
| --- | --- |
| 0.04 | B1 |
| 1.66 | B2 |
| 0.2 | B3 |
| 0.08 | B4 |
| 0.11 | B5 |
| 0.08 | B6 |
| 0.07 | B7 |
| 0.1 | B8 |

molecular target: T2, human TNF alpha (TNFα) (UniProt P01375 77-233); test: SPR
T2 sequence (P01375 77-233): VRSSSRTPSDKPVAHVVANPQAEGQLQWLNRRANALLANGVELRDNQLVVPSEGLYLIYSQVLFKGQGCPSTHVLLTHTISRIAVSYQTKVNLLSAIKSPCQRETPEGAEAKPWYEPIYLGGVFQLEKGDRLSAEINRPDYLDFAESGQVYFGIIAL

| Kd [nM] | Binder |
| --- | --- |
| 0.39 | B1 |
| 0.1 | B2 |
| 0.16 | B3 |
| 0.58 | B4 |
| 0.49 | B5 |
| 1.09 | B6 |
| 0.42 | B7 |
| 0.87 | B8 |

molecular target: T2, human TNF alpha (TNFα); test: SPR; pre-bound with IL23p19

| Kd [nM] | Binder |
| --- | --- |
| 0.12 | B3 |
| 0.41 | B5 |
| 0.41 | B7 |
| 0.93 | B8 |
